Results on 1 molecule are retold here after PMC6755812.

The target of experiment [1] is Escherichia coli peptide methionine sulfoxide reductase A (E. coli) (UniProt P0A744).
Experiment [2] addresses Escherichia coli thioredoxin reductase (E. coli) (UniProt P0A9P4).
For experiment [3], the target named is bovine pancreas insulin (bovine).
Chain of bovine pancreas insulin (bovine) (P01317 25-54, chain 1 of 2): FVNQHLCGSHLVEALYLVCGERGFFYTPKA
Chain of bovine pancreas insulin (bovine) (P01317 85-105, chain 2 of 2): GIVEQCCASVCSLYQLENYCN

Chain of Escherichia coli peptide methionine sulfoxide reductase A (E. coli) (P0A744 2-212): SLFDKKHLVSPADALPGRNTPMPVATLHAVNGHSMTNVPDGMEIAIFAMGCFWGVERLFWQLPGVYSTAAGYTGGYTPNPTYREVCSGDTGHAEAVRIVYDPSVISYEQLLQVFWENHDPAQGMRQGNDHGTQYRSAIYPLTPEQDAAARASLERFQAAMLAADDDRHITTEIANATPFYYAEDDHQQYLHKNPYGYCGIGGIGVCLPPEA
Chain of Escherichia coli thioredoxin reductase (E. coli) (P0A9P4 2-321): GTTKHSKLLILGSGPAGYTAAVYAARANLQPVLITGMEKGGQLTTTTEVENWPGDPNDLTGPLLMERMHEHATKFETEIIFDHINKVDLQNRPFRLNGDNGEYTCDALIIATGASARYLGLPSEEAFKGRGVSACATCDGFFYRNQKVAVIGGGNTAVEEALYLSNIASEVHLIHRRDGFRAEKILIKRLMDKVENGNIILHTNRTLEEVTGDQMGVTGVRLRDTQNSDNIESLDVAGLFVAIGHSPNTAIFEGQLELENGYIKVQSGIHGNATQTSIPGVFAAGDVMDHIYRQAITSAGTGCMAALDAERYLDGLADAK

B1: human thioredoxin (enzyme)
chain: MVKQIESKTAFQEALDAAGDKLVVVDFSATWCGPCKMIKPFFHSLSEKYSNVIFLEVDVDDCQDVASECEVKCMPTFQFFKKGQKVGEFSGANKEKLEATINELV
In experiment [1], B1 displayed a k1: rate constant of Trx–MsrA mixed disulfide formation (stopped-flow fluorescence, 1 μM oxidized MsrA, 5-100 μM reduced Trx, pH 7.0, 25 °C) of 221000 M^−1 s^−1; a k2: rate constant of mixed disulfide dissociation to reduced MsrA and oxidized Trx (stopped-flow fluorescence, pH 7.0, 25 °C) of 3.63 s^−1. In experiment [2], this molecule gave a Catalytic activity of S-MetO reduction by NADPH (Vi/[Trx]) in the reconstituted NADPH/TrxR/Trx/MsrA chain (4.5 μM TrxR, 4.5 μM MsrA, 0.1-1.0 μM Trx, pH 7.0, 25 °C) of 0.22 min^−1. The Specific insulin reductase activity (0.13 mM insulin, 1 mM DTT, 0.5-2.0 μM Trx, onset of aggregation at OD650, pH 7.0, 25 °C) in experiment [3] was 0.155 min^−1 μM^−1.
